± gives the uncertainty stated by the source.
B1: SWI/SNF-related matrix-associated actin-dependent regulator of chromatin subfamily B member 1, residues 181 to 248; numbered along this chain, Q12824 (parent)
chain: SQPEVLVPIRLDMEIDGQKLRDAFTWNMNEKLMTPEMFSEILCDDLDLNPLTFVPAIASAIRQQIESY

Variants of: B1
Test: abundance fitness (aPCA) (normalised: wild type 0, dead -1); higher = more abundant; growth selection in yeast, the domain comes from the species named
Conditions: Homo sapiens

Row | Variant | abundance fitness
1 | SQPEVLVPIRLDMEIDGQKLRDAFTWNMNEKLMTPEMTSEILCDDLDLNPLTFVPAIASAIRQQIESY [F38T] | -0.722 ± 0.28
2 | SQPEVLVPIRLDMEIDGQKLRDAFTWNMNEKLMTPEMFSEILCGDLDLNPLTFVPAIASAIRQQIESY [D44G] | -0.276 ± 0.16
3 | SQPEVLVPIRLDMEIDGQKLRDAFTWNMNEKLMTPEMFSEILCEDLDLNPLTFVPAIASAIRQQIESY [D44E] | 0.309 ± 0.22
4 | SQPEVLVPIRLDMEIDGQKLRDAFTWNMNEKLMTPEMFSEILCHDLDLNPLTFVPAIASAIRQQIESY [D44H] | 0.258 ± 0.17
5 | SQPEVLVPIRLDMEIDGQKLRDAFTWNMNEKLMTPEMFSEILCADLDLNPLTFVPAIASAIRQQIESY [D44A] | 0.271 ± 0.22
6 | SQPEVLVPIRLDMEIDGQKLRDAFTWNMNEKLMTPEMFSKILCDDLDLNPLTFVPAIASAIRQQIESY [E40K] | -0.015 ± 0.055
7 | SQPEVLVPIRLDMEIDGQKLRDAFTWNMNEKLMTPEMFSRILCDDLDLNPLTFVPAIASAIRQQIESY [E40R] | 0.042 ± 0.033
8 | SQPEVLVPIRLDMEIDGQKLRDAFTWNMNEKLMTPEMFSGILCDDLDLNPLTFVPAIASAIRQQIESY [E40G] | -0.347 ± 0.036
9 | SQPEVLVPIRLDMEIDGQKLRDAFTWNMNEKLMTPEMFSVILCDDLDLNPLTFVPAIASAIRQQIESY [E40V] | -0.215 ± 0.041
10 | SQPEVLVPIRLDMEIDGQKLRDAFTWNMNEKLMTPEMFSMILCDDLDLNPLTFVPAIASAIRQQIESY [E40M] | -0.149 ± 0.073
11 | SQPEVLVPIRLDMEIDGQKLRDAFTWNMNEKLMTPEMFSWILCDDLDLNPLTFVPAIASAIRQQIESY [E40W] | -0.511 ± 0.06
12 | SQPEVLVPIRLDMEIDGQKLRDAFTWNMNEKLMTPEMFSDILCDDLDLNPLTFVPAIASAIRQQIESY [E40D] | -0.566 ± 0.089
13 | SQPEVLVPIRLDMEIDGQKLRDAFTWNMNEKLMTPEMFSAILCDDLDLNPLTFVPAIASAIRQQIESY [E40A] | 0.038 ± 0.033
14 | SQPEVLVPIRLDMEIDGQKLRDAFTWNMNEKLMTPEMFSQILCDDLDLNPLTFVPAIASAIRQQIESY [E40Q] | 0.005 ± 0.065
15 | SQPEVLVPIRLDMEIDGQKLRDAFTWNMNEKLMTPEMFSHILCDDLDLNPLTFVPAIASAIRQQIESY [E40H] | -0.236 ± 0.065
16 | SQPEVLVPIRLDMEIDGQKLRDAFTWNMNEKLMTPEMFSFILCDDLDLNPLTFVPAIASAIRQQIESY [E40F] | -0.463 ± 0.17
17 | SQPEVLVPIRLDMEIDGQKLRDAFTWNMNEKLMTPEMFSTILCDDLDLNPLTFVPAIASAIRQQIESY [E40T] | -0.12 ± 0.045
18 | SQPEVLVPIRLDMEIDGQKLRDAFTWNMNEKLMTPEMFSIILCDDLDLNPLTFVPAIASAIRQQIESY [E40I] | -0.419 ± 0.099
19 | SQPEVLVPIRLDMEIDGQKLRDAFTWNMNEKLMTPEMFSYILCDDLDLNPLTFVPAIASAIRQQIESY [E40Y] | -0.33 ± 0.082
20 | SQPEVLVPIRLDMEIDGQKLRDAFTWNMNEKLMTPEMFSPILCDDLDLNPLTFVPAIASAIRQQIESY [E40P] | -0.794 ± 0.14

Row | Variant | abundance fitness
21 | SQPEVLVPIRLDMEIDGQKLRDAFTWNMNEKLMTPEMFSNILCDDLDLNPLTFVPAIASAIRQQIESY [E40N] | -0.269 ± 0.11
22 | SQPEVLVPIRLDMEIDGQKLRDAFTWNMNEKLMTPEMFSSILCDDLDLNPLTFVPAIASAIRQQIESY [E40S] | -0.114 ± 0.045
23 | SQPEVLVPIRLDMEIDGQKLRDAFTWNMNEKLMTPEMFSEELCDDLDLNPLTFVPAIASAIRQQIESY [I41E] | 0.131 ± 0.043
24 | SQPEVLVPIRLDMEIDGQKLRDAFTWNMNEKLMTPEMFSEALCDDLDLNPLTFVPAIASAIRQQIESY [I41A] | 0.207 ± 0.04
25 | SQPEVLVPIRLDMEIDGQKLRDAFTWNMNEKLMTPEMFSELLCDDLDLNPLTFVPAIASAIRQQIESY [I41L] | -0.011 ± 0.036
26 | SQPEVLVPIRLDMEIDGQKLRDAFTWNMNEKLMTPEMFSERLCDDLDLNPLTFVPAIASAIRQQIESY [I41R] | 0.218 ± 0.03
27 | SQPEVLVPIRLDMEIDGQKLRDAFTWNMNEKLMTPEMFSECLCDDLDLNPLTFVPAIASAIRQQIESY [I41C] | -0.062 ± 0.061
28 | SQPEVLVPIRLDMEIDGQKLRDAFTWNMNEKLMTPEMFSEFLCDDLDLNPLTFVPAIASAIRQQIESY [I41F] | -0.103 ± 0.092
29 | SQPEVLVPIRLDMEIDGQKLRDAFTWNMNEKLMTPEMFSEYLCDDLDLNPLTFVPAIASAIRQQIESY [I41Y] | -0.057 ± 0.076
30 | SQPEVLVPIRLDMEIDGQKLRDAFTWNMNEKLMTPEMFSEQLCDDLDLNPLTFVPAIASAIRQQIESY [I41Q] | 0.211 ± 0.06
31 | SQPEVLVPIRLDMEIDGQKLRDAFTWNMNEKLMTPEMFSETLCDDLDLNPLTFVPAIASAIRQQIESY [I41T] | 0.091 ± 0.049
32 | SQPEVLVPIRLDMEIDGQKLRDAFTWNMNEKLMTPEMFSEKLCDDLDLNPLTFVPAIASAIRQQIESY [I41K] | 0.314 ± 0.05
33 | SQPEVLVPIRLDMEIDGQKLRDAFTWNMNEKLMTPEMFSEDLCDDLDLNPLTFVPAIASAIRQQIESY [I41D] | -0.04 ± 0.12
34 | SQPEVLVPIRLDMEIDGQKLRDAFTWNMNEKLMTPEMFSEVLCDDLDLNPLTFVPAIASAIRQQIESY [I41V] | 0.01 ± 0.04
35 | SQPEVLVPIRLDMEIDGQKLRDAFTWNMNEKLMTPEMFSEGLCDDLDLNPLTFVPAIASAIRQQIESY [I41G] | 0.097 ± 0.041
36 | SQPEVLVPIRLDMEIDGQKLRDAFTWNMNEKLMTPEMFSENLCDDLDLNPLTFVPAIASAIRQQIESY [I41N] | 0.167 ± 0.068
37 | SQPEVLVPIRLDMEIDGQKLRDAFTWNMNEKLMTPEMFSESLCDDLDLNPLTFVPAIASAIRQQIESY [I41S] | 0.174 ± 0.033
38 | SQPEVLVPIRLDMEIDGQKLRDAFTWNMNEKLMTPEMFSEMLCDDLDLNPLTFVPAIASAIRQQIESY [I41M] | 0.131 ± 0.048
39 | SQPEVLVPIRLDMEIDGQKLRDAFTWNMNEKLMTPEMFSEHLCDDLDLNPLTFVPAIASAIRQQIESY [I41H] | 0.034 ± 0.061
40 | SQPEVLVPIRLDMEIDGQKLRDAFTWNMNEKLMTPEMFSEWLCDDLDLNPLTFVPAIASAIRQQIESY [I41W] | -0.04 ± 0.045

— the Human Domainome abundance scans (Beltran et al. 2025)
